Measurements taken from patent US20230137139A1, “BIOSYNTHESIS OF CANNABINOIDS AND C[…]” (priority 2020, published 2023).

B1: t865771 (protein)
chain: MGNTTSIAGRDCLISALGGNSALAVFPNELLWTADVHEYNLNLPVTPAAITYPETAAQIAGVVKCASDYDYKVQARSGGHSFGNYGLGGADGAVVVDMKHFTQFSMDDETYEAVIGPGTTLNDVDIELYNNGKRAMAHGVCPTIKTGGHFTIGGLGPTARQWGLALDHVEEVEVVLANSSIVRASNTQNQDVFFAVKGAAANFGIVTEFKVRTEPAPGLAVQYSYTFNLGSTAEKAQFVKDWQSFISAKNLTRQFYNNMVIFDGDIILEGLFFGSKEQYDALGLEDHFAPKNPGNILVLTDWLGMVGHALEDTILKLVGNTPTWFYAKSLGFRQDTLIPSAGIDEFFEYIANHTAGTPAWFVTLSLEGGAINDVAEDATAYAHRDVLFWVQLFMVNPVGPISDTTYEFTNGLYDVLARAVPESVGHAYLGCPDPRMEDAQQKYWRTNLPRLQELKEELDPKNTFHHPQGVMPA
modifications: expressed in S. cerevisiae strain
B2: t865739 (protein)
chain: MGNTTSIAGRDCLISALGGNSALAVFPNELLWTADVHEYNLNLPVTPAAITYPETAAQIAGVVKCASDYDYKVQARSGGHSFGNYGLGGADGAVVVDMKHFTQFSMDDETYEAVIGPGTTLNDVDIELYNNGKRAMAHGVCPTIKTGGHFTIGGLGPTARQWGLALDHVEEVEVVLANSSIVRASNTQNQDVFFAVKGAAANFGIVTEFKVRTEPAPGLAVQYSYTFNLGSTAEKAQFVKDWQSFISAKNLTRQFYNNMVIFDGDIILEGLFFGSKEQYDALGLEDHFAPKNPGNILVLTDWLGMVGHALEDTILKLVGNTPTWFYAKSLGFRQDTLIPSAGIDEFFEYIANHTAGTPAWFVTLSLEGGAINDVAEDATAYAHRDVLFWVQLFMVNPVGPISDTTYEFTDGLYDVLARAVPESVGHAYLGCPDPRMEDAQQKYWRTNLPKLQELKEELDPKNTFHHPQGVMPA
B3: t865750 (protein)
chain: MGNTTSIAGRDCLISALGGNSALAVFPNELLWTADVHEYNLNLPVTPAAITYPETAAQIAGVVKCASDYDYKVQARSGGHSFGNYGLGGADGAVVVDMKHFTQFSMDDETYEAVIGPGTTLNDVDIELYNNGKRAMAHGVCPTIKTGGHFTIGGLGPTARQWGLALDHVEEVEVVLANSTIVRASNTQNQDVFFAVKGAAANFGIVTEFKVRTEPAPGLAVQYSYTFNLGSTAEKAQFVKDWQSFISAKNLTRQFYNNMVIFDGDIILEGLFFGSKEQYDALGLEDHFAPKNPGNILVLTDWLGMVGHALEDTILKLVGNTPTWFYAKSLGFRQDTLIPSAGIDEFFEYIANHTAGTPAWFVTLSLEGGAINDVAEDATAYAHRDVLFWVQLFMVNPVGPISDTTYEFTDGLYDVLARAVPESVGHAYLGCPDPRMEDAQQKYWRTNLPRLQELKEELDPKNTFHHPQGVMPA
modifications: expressed in S. cerevisiae strain

Key:
[1] = system: CBCA, THCA, and CBDA production; assay: In vivo TS activity assay, Example 2 protein engineering of A. niger CBCAS, cultures fed olivetolic acid; format: cell-based, S. cerevisiae; conditions: for average CBCA titer compared with the A. niger positive control / Mean CBCA / Mean CBDA / Mean THCA: secondary screen; for Mean CBCA / Mean CBDA / Mean THCA: olivetolic acid (Table 8); for % CBCA / % CBDA / % THCA: share of terminal cannabinoid product profile
Description: (§1) An assay to detect TS activity was conducted as follows: each thawed glycerol stock of candidate CBCAS transformants was stamped into a well of YEP+4% dextrose media. Samples were incubated at 30° C. in a shaking incubator for 2 days. A portion of each of the resulting cultures was stamped into a well of YEP+4% galactose+1 mM olivetolic acid (FIG. 1 Structure 6a). Samples were incubated at 20° C. and shaken in a shaking incubator for 4 days. Every 24 hours during those 4 days, 2% galactose and 1 mM olivetolic acid were spiked into the cultures. Sodium citrate buffer adjusted to pH 5.5 was added to each well at a final concentration of 100 mM. Samples were incubated at 20° C. and shaken in a shaking incubator for 2 days. A portion of each of the resulting production cultures was stamped into a well of phosphate buffered saline (PBS). Optical measurements were taken on a plate reader, with absorbance measured at 600 nm and fluorescence at 528 nm with 485 nm excitation. Samples were incubated at 30° C. in a shaking incubator for 2 days. 100% methanol was stamped into the production cultures in half-height deepwell plates. Plates were heat sealed and frozen. Samples were then thawed for 30 min and spun down at 4° C. A portion of the supernatant was stamped into half-area 96 well plates. CBCA, THCA, and CBDA production in the samples was quantified via liquid chromatography-mass spectrometry (LC-MS).
(§2) To determine whether engineering of the A. niger CBCAS identified in Example 1 (corresponding to SEQ ID NO: 29 (with signal peptides); SEQ ID NO: 27 (without signal peptides and including an N-terminal methionine (UniProt accession No. A0A254UC34)); or SEQ ID NO: 25 (without signal peptides and without the N-terminal methionine)), could alter CBCAS substrate specificity, product specificity and/or amounts of products produced, point mutations were generated in A. niger CBCAS and the mutant versions of the protein were expressed in S. cerevisiae. A library containing 1047 A. niger CBCAS mutants was generated and screened. As in Example 1, each CBCAS mutant in the library, as well as the enzymes expressed by positive control strains, included an N-terminal MFalpha2 signal peptide (SEQ ID NO: 16) (with a methionine residue added at the N-terminus of the MFalpha2 signal peptide) and a C-terminal HDEL signal peptide (SEQ ID NO: 17).
Production of compounds of Formulae (9), (10), and/or (11), including compounds of Formulae (9a), (10a), and/or (11a) by strains expressing the mutated versions of A. niger CBCAS was quantified and compared to the production of the same compounds by a strain expressing wild-type A. niger CBCAS, a strain expressing a C. sativa THCAS, and a strain expressing a C. sativa CBDAS. The strains were screened using the same assay described in Example 1. Production of CBCA, THCA, and/or CBDA in the samples was quantified via LC-MS.
(§3) Of the original 1047 library members, 55 strains were elevated to a secondary screen to verify CBCA production. The experimental protocol for the secondary screen was identical to the primary screen, except that additional biological replicates were included per strain, and replicate production cultures for each strain were separately fed 1 mM boluses of olivetolic acid or 1 mM boluses of divaric acid. All strains were screened in quadruplicate.

[2] = system: CBCVA, THCVA, and CBDVA production; assay: In vivo TS activity assay, Example 2 protein engineering of A. niger CBCAS, cultures fed divaric acid; format: cell-based, S. cerevisiae; conditions: for Mean CBCVA / Mean CBDVA / Mean THCVA: S. cerevisiae strains expressing A. niger CBCAS mutants; for Mean CBCVA / Mean CBDVA / Mean THCVA / average CBCVA titer compared with the A. niger positive control: secondary screen; for Mean CBCVA / Mean CBDVA / Mean THCVA / % CBCVA / % CBDVA / % THCVA: fed divaric acid; for % CBCVA / % CBDVA / % THCVA: share of terminal cannabinoid product profile
Description: as §1, §2, §3

| Molecule | average CBCA titer compared with the A. niger positive control [1] | Mean CBCA [1] [µg/L] | Mean CBDA [1] [µg/L] | Mean THCA [1] [µg/L] | % CBCA [1] [%] | % CBDA [1] [%] | % THCA [1] [%] | Mean CBCVA [2] [µg/L] | Mean CBDVA [2] [µg/L] | Mean THCVA [2] [µg/L] | % CBCVA [2] [%] | % CBDVA [2] [%] | % THCVA [2] [%] | average CBCVA titer compared with the A. niger positive control [2] |
| --- | --- | --- | --- | --- | --- | --- | --- | --- | --- | --- | --- | --- | --- | --- |
| B1 | higher | 40971.16 | 8309.68 | 2638.90 | 78.91 | 16.00 | 5.08 | 1592.02 | 0.00 | 968.82 | 62.17 | 0.00 | 37.83 |  |
| B2 | higher | 40214.21 | 10767.85 | 2538.89 | 75.14 | 20.12 | 4.74 | 4265.42 | 0.00 | 2039.44 | 67.65 | 0.00 | 32.35 | higher |
| B3 | higher | 39940.41 | 10807.90 | 2475.89 | 75.04 | 20.31 | 4.65 | 5745.78 | 0.00 | 2770.13 | 67.47 | 0.00 | 32.53 | higher |
